From patent US20150239990A1 (published 2015) come the findings set out here.

To fix the notation:
B1: safe variant 1F2 (partially humanized, fused to human C-lambda and CH1), Fab displayed on phage (Fab, V domains shown)
VH: EVQLLESGGGLVQPGGSLRLSCAASGFTFSTYAMSWVRQAPGKGPEWVSGINTGGGSTGYADSVKGRFTISRDNSKNTLYLQMNSLRPEDTAVYYCAKDWMATTPWGQGTQVTVSS
VL: QTVVTQEPSFSVSPGGTVTLTCGLSSGSVTTNNYPGWFQQTPGQAPRTLIYNTNNRHSGVPSRFSGSILGNKAALTITGAQADDESDYYCALYMSSGSNNAVFGGGTKLTVLG
notes: also called safe 1F2
B2: wt 1F2 (llama VL and VH fused to human C-lambda and CH1), Fab displayed on phage (Fab, V domains shown)
VH: EVQLVESGGGLVQPGGSLRLSCAASGFTFSTYAMSWVRQAPGKGPEWVSGINTGGGSTGYADSVKGRFTISRDNAKNTLYLQMNSLKPEDTAVYYCAKDWMATTPWGQGTQVTVSS
VL: QAVVTQEPSLSVSPGGTVTLTCGLSSGSVTTNNYPGWFQQTPGQAPRTLIYNTNNRHSGVPSRFSGSISGNKAALTITGAQPEDEADYYCALYMSSGSNNAVFGGGTHLTVLG
notes: Tested as a gene3-Fab fusion on phage (crude phage extract)
B3: hum 1F2 (fully humanized VL and VH fused to human C-lambda and CH1), Fab displayed on phage (Fab, V domains shown)
VH: EVQLLESGGGLVQPGGSLRLSCAASGFTFSTYAMSWVRQAPGKGLEWVSGINTGGGSTGYADSVKGRFTISRDNSKNTLYLQMNSLRAEDTAVYYCAKDWMATTPWGQGTLVTVSS
VL: QTVVTQEPSFSVSPGGTVTLTCGLSSGSVTTNNYPGWYQQTPGQAPRTLIYNTNNRSSGVPDRFSGSILGNKAALTITGAQADDESDYYCALYMSSGSNNAVFGGGTKLTVLG
notes: Tested as a gene3-Fab fusion on phage
B4: hum 1E2 (fully humanized VL and VH fused to human C-lambda and CH1), Fab displayed on phage (Fab, V domains shown)
VH: EVQLVESGGGLVQPGGSLRLSCAASGFTFSNYWMYWVRQAPGKGLEWVSAINAAGSTYYADSVKGRFTISRDNSKNTLYLQMNSLRAEDTAVYYCANLPRWGQGTLVTVSS
VL: QTVVTQEPSFSVSPGGTVTLTCGLSSGSVTSGNYPGWYQQTPGQAPRTLIYNTNSRSSGVPDRFSGSILGNKAALTITGAQADDESDYYCAVYIGSSSYPVVFGGGTKLTVLG
notes: as for B3
B5: wt 1E2 (llama VL and VH fused to human C-lambda and CH1), Fab displayed on phage (Fab, V domains shown)
VH: EVQLVESGGGLVQPGGSLRLSCTASGFTFSNYWMYWVRQAPGKGLEWVSAINAAGSTYYADSVKGRFTISRDNAKNTLYLQMNSLQSEDTALYYCANLPRWGQGTQVTVSS
VL: QTVVTQEPSLSVSPGGTVTLTCGLSSGSVTSGNYPGWYQQKPGQAPRTLIYNTNSRYSGVPNRFSGSISGNKAALTITGAQPEDEADYYCAVYIGSSSYPVVFGGGTHLTVLG
notes: as for B3
B6: safe variant 1E2 (partially humanized, fused to human C-lambda and CH1), Fab displayed on phage (Fab, V domains shown)
VH: EVQLVESGGGLVQPGGSLRLSCAASGFTFSNYWMYWVRQAPGKGLEWVSAINAAGSTYYADSVKGRFTISRDNSKNTLYLQMNSLQSEDTAVYYCANLPRWGQGTQVTVSS
VL: QTVVTQEPSFSVSPGGTVTLTCGLSSGSVTSGNYPGWYQQKPGQAPRTLIYNTNSRSSGVPDRFSGSILGNKAALTITGAQPDDESDYYCAVYIGSSSYPVVFGGGTHLTVLG
notes: also called safe 1E2
B7: Fab 1F2 (llama Fab selected against IL-1Beta) (Fab, V domains shown)
VH: EVQLVESGGGLVQPGGSLRLSCAASGFTFSTYAMSWVRQAPGKGPEWVSGINTGGGSTGYADSVKGRFTISRDNAKNTLYLQMNSLKPEDTAVYYCAKDWMATTPWGQGTQVTVSS
VL: QAVVTQEPSLSVSPGGTVTLTCGLSSGSVTTNNYPGWFQQTPGQAPRTLIYNTNNRHSGVPSRFSGSISGNKAALTITGAQPEDEADYYCALYMSSGSNNAVFGGGTHLTVLG
notes: Original clone from the llama Fab phage library
B8: wild type llama 1E2 Fab (Fab, V domains shown)
VH: EVQLVESGGGLVQPGGSLRLSCTASGFTFSNYWMYWVRQAPGKGLEWVSAINAAGSTYYADSVKGRFTISRDNAKNTLYLQMNSLQSEDTALYYCANLPRWGQGTQVTVSS
VL: QTVVTQEPSLSVSPGGTVTLTCGLSSGSVTSGNYPGWYQQKPGQAPRTLIYNTNSRYSGVPNRFSGSISGNKAALTITGAQPEDEADYYCAVYIGSSSYPVVFGGGTHLTVLG
notes: Produced from phagemid pCB3; Hexahistidine and myc tags at the C-terminus of the Fd; Captured by anti-myc; also called Fab 1E2
B9: chimeric 1E2 Fab (llama VL and VH of 1E2 fused to human C-lambda and CH1) (Fab, V domains shown)
VH: EVQLVESGGGLVQPGGSLRLSCTASGFTFSNYWMYWVRQAPGKGLEWVSAINAAGSTYYADSVKGRFTISRDNAKNTLYLQMNSLQSEDTALYYCANLPRWGQGTQVTVSS
VL: QTVVTQEPSLSVSPGGTVTLTCGLSSGSVTSGNYPGWYQQKPGQAPRTLIYNTNSRYSGVPNRFSGSISGNKAALTITGAQPEDEADYYCAVYIGSSSYPVVFGGGTHLTVLG
notes: Purified from E. coli (pCB5, no gene3); Myc and hexahistidine tags on the Fd; also called wt 1E2
B10: Fab 1E2 wt VL / hum VH (with human CL and human CH1) (Fab, V domains shown)
VH: EVQLVESGGGLVQPGGSLRLSCAASGFTFSNYWMYWVRQAPGKGLEWVSAINAAGSTYYADSVKGRFTISRDNSKNTLYLQMNSLRAEDTAVYYCANLPRWGQGTLVTVSS
VL: QTVVTQEPSLSVSPGGTVTLTCGLSSGSVTSGNYPGWYQQKPGQAPRTLIYNTNSRYSGVPNRFSGSISGNKAALTITGAQPEDEADYYCAVYIGSSSYPVVFGGGTHLTVLG
notes: Purified from E. coli; also called wt/hum; wt VA/hum VH
B11: Fab 1E2 wt VL / safe VH (with human CL and human CH1) (Fab, V domains shown)
VH: EVQLVESGGGLVQPGGSLRLSCAASGFTFSNYWMYWVRQAPGKGLEWVSAINAAGSTYYADSVKGRFTISRDNSKNTLYLQMNSLQSEDTAVYYCANLPRWGQGTQVTVSS
VL: QTVVTQEPSLSVSPGGTVTLTCGLSSGSVTSGNYPGWYQQKPGQAPRTLIYNTNSRYSGVPNRFSGSISGNKAALTITGAQPEDEADYYCAVYIGSSSYPVVFGGGTHLTVLG
notes: Purified from E. coli; also called wt/safe; wt VA/safe VH

The target in the first test is T1, neutravidin (UniProt P02701 25-152).
T1 construct: Capture reagent of the phage ELISA; Wells without biotinylated IL-1Beta served as the negative control
T1 sequence (P02701 25-152): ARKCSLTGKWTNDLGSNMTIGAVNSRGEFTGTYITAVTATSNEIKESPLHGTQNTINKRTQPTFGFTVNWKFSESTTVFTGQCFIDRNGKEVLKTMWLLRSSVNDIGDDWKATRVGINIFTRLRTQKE
The test is described as follows: phage ELISA on neutravidin coated wells, anti-M13-HRP detection. The method, then:
(§1) Four clones for each Fab were tested to overcome clonal variation (due to bacterial growth, phage production efficiency and toxicity etc. . . . ). Phage ELISA was performed by capturing of biotinylated IL-1Beta on neutravidin coated Maxisorp plate and subsequent incubation of crude phage extract (i.e. bacterial medium). After extensive washing, bound phages were detected with an anti-M13-HRP monoclonal antibody.
B1: the binding result was “no binding”. B2: the binding result is reported as “no binding”. Same read-out and setting: with B3 the entry was “no binding”; with B4, “no binding”; with B5, “no binding”. Still for that read-out and setting: with B6 the entry was “no binding”.

For another test, the target named is T2, biotinylated human IL-1Beta (human, UniProt P01584 117-269, biotinylated (positions not stated)).
T2 construct: In the assays it was biotinylated; also called biot-IL-1Beta
The test is described as follows: phage display selection and phage ELISA on biotinylated IL-1Beta.
Take B7: the binding result is listed as “binds”. On the same count and under the same terms, the entry for B8 is “binds”.

Another test has as its target T2, biotinylated human IL-1Beta. The experiment in a line: phage ELISA: biotinylated IL-1Beta captured on neutravidin, crude phage, anti-M13-HRP. The method, then:
as §1
Consider B3, for which the binding result is “binds”.

Another test has the same target. The experiment in a line: ELISA: Fab captured on anti-myc plate, biotinylated human IL-1Beta, streptavidin-HRP. On the procedure:
For this the Fabs were captured on an anti-myc coated Maxisorp plate. Biotinylated human IL-1Beta was added and bound cytokine was detected using HRP-conjugated streptavidin.
The purified llama and chimeric 1E2 Fabs described above were captured on anti-myc coated maxisorp plates. After incubation with biotinylated human IL-1Beta and extensive washing, the biotinylated IL-1Beta bound to the Fab was detected using HRP-conjugated streptavidin.
B9: the binding result is on record as “binds”. Still for that read-out and setting: the entry for B10 is “binds”. For the molecule B11, the binding result is “binds”.
